These results are taken from US20240216513A1, “FATTY ACID-BIFUNCTIONAL DEGRADER CONJUGATES AND THEIR METHODS OF USE” (Novartis AG, priority 2021, published 2024).

Series [1] is described as follows: BTK FAC plasma stability assay, PBS buffer arm. In kind it is physicochemical. The conditions noted are these: for Plasma stability (h) PBS: incubation to 24 h. In short, it runs like this:
(§1)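 Compound from a 500 µM acetonitrile:water working solution was spiked into K3-EDTA plasma or Dulbecco's PBS and incubated with shaking at 38 °C. Samples taken at 0, 2, 6 and 24 h were precipitated with cold acetonitrile containing glyburide internal standard. Semi-quantitative LC-MS/MS used analyte:internal standard peak area ratios.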

Series [2] is described as follows: BTK FAC plasma stability assay, mouse plasma. The conditions noted are these: for Plasma stability (h) mouse: incubation to 24 h. In kind it is in vitro ADME. In short, it runs like this:
as §1

The nature of series [3]: BTK FAC plasma stability assay, rat plasma. In kind it is in vitro ADME. The conditions noted are these: for Plasma stability (h) rat: incubation to 24 h. In short, it runs like this: as §1
A short description of series [4]: BTK FAC plasma stability assay, dog plasma. In kind it is in vitro ADME.
Series [5] is described as follows: BTK FAC plasma stability assay, cyno plasma. It is filed as in vitro ADME, cynomolgus monkey.
The next series has as its target T1, BTK C481S (Homo sapiens, UniProt Q06187, C481S).
T1 construct: endogenous in cells; host or cells: TMD8 BTK C481S mutant tumour xenografts in mice
Briefly: PD screen in TMD8 BTK C481S mutant tumor-bearing mice, BTK levels and compound concentrations in blood and tumor. It is filed as in vivo, mouse. Particulars: i.v.; 50 umol/kg. Here is the method: All animal studies were conducted in accordance with ethics and procedures covered by permit nos. BS-1975 issued by the Kantonales Veterinäramt Basel-Stadt and in strict adherence to guidelines of the Eidgenössisches Tierschutzgesetz and the Eidgenössische Tierschutzverordnung, Switzerland. All animals had access to food and water ad libitum and were identified with transponders. They were housed in a specific pathogen-free facility with a 12-h light/12-h dark cycle. For PD screen experiments in TMD8 BTK C481S mutant tumor-bearing mice, FAC was injected once. Animals were randomized into groups of 2 and tissue samples collected at day 0, 4, 7 and in some studies day 10 as well. Blood samples were collected and tumors were excised, weighed, frozen in liquid nitrogen and cryogenic dry pulverized with the CryoPrep™ system (model CP-02, Covaris). Concentrations of compounds in blood and tumors were determined by UPLC/MS-MS and BTK levels were analyzed by Meso Scale Discovery.

Marks after values point to notes of the source that are not given here.

T1 sequence (Q06187 whole entry C481S): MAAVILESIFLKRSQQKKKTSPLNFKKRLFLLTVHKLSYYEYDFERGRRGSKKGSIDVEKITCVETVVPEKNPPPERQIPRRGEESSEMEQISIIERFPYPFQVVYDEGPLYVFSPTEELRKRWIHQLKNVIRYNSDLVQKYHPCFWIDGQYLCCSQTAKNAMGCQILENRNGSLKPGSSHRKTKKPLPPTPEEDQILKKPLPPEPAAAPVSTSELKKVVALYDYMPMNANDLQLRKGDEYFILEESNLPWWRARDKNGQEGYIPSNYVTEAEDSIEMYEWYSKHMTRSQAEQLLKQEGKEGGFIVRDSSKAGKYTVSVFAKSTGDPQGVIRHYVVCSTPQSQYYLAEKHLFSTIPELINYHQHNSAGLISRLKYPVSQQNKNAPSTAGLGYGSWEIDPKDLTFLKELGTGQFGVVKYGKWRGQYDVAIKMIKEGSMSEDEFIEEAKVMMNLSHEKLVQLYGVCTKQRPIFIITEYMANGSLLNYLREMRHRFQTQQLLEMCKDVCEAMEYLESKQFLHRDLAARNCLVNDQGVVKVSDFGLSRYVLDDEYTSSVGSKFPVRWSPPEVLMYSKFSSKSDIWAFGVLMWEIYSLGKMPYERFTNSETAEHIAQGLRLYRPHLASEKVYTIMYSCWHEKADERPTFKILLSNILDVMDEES

As for `CCCCCCCCCCCN(C(=O)CCCCCCCCCC(=O)O)C(CCC(=O)NCCOCCOCCOCCOCCOCCOCCOCCOCCOCCOCCOCCOCCC(=O)N(CC)CC(=O)OC(C)(C)c1ccc(C(=O)Nc2cc(F)cc(-c3ncnc4[nH]c(-c5ccc(CCN6CCC7(CC6)CCN(C(=O)c6ccc(OC)c(N8CCC(=O)NC8=O)c6)CC7)cc5)cc34)c2C)c(F)c1)C(=O)O` (centres unmarked) [Example A13, 50-Carboxy-2-(4-((3-(6-(4-(2-(9-(3-(2,4-dioxotetrahydropyrimidin-1(2H)-yl)-4-methoxybenzoyl)-3,9-diazaspiro[5.5]undecan-3-yl)ethyl)phenyl)-7H-pyrrolo[2,3-d]pyrimidin-4-yl)-5-fluoro-2-methylphenyl)carbamoyl)-3-fluorophenyl)-6-ethyl-2-methyl-4,7,47,52-tetraoxo-51-undecyl-3,10,13,16,19,22,25,28,31,34,37,40,43-tridecaoxa-6,46,51-triazadohexacontan-62-oic acid], in series [1], the “% Release of degrader after 24 h PBS” value is recorded as 1.4% and the “Plasma stability (h) PBS” value is given as over 48 h. In series [2], the “% Release of degrader after 24 h mouse” value is listed as 3.7% and the “Plasma stability (h) mouse” value is given as over 48 h. In series [3], the “% Release of degrader after 24 h rat” value is listed as 2% and the “Plasma stability (h) rat” value was over 48 h. Also, in series [4], the “Plasma stability (h) dog” value was over 48 h and the “% Release of degrader after 24 h dog” value turned out to be 2.7%. For the same molecule, in series [5], the “Plasma stability (h) cyno” value is reported as over 48 h and the “% Release of degrader after 24 h cyno” value came to 2.5%. In addition, the “Duration of BTK degradation in mouse ≥90%” value on BTK C481S was 7 days.

Consider `CCCCCCCCCCCN(C(=O)CCCCCCCCCC(=O)O)C(CCC(=O)NCCOCCOCCOCCOCCOCCOCCOCCOCCOCCOCCOCCOCCC(=O)N1CCC[C@H]1CC(=O)OC(C)(C)c1ccc(C(=O)Nc2cc(F)cc(-c3ncnc4[nH]c(-c5ccc(CCN6CCC7(CC6)CCN(C(=O)c6ccc(OC)c(N8CCC(=O)NC8=O)c6)CC7)cc5)cc34)c2C)c(F)c1)C(=O)O` (stereo partly drawn) [Example A19, 44-Carboxy-1-((S)-2-(2-((2-(4-((3-(6-(4-(2-(9-(3-(2,4-dioxotetrahydropyrimidin-1(2H)-yl)-4-methoxybenzoyl)-3,9-diazaspiro[5.5]undecan-3-yl)ethyl)phenyl)-7H-pyrrolo[2,3-d]pyrimidin-4-yl)-5-fluoro-2-methylphenyl)carbamoyl)-3-fluorophenyl)propan-2-yl)oxy)-2-oxoethyl)pyrrolidin-1-yl)-1,41,46-trioxo-45-undecyl-4,7,10,13,16,19,22,25,28,31,34,37-dodecaoxa-40,45-diazahexapentacontan-56-oic acid], for which, in series [1], the “% Release of degrader after 24 h PBS” value is given as 0.3% and the “Plasma stability (h) PBS” value is given as over 48 h. Further, in series [2], the “% Release of degrader after 24 h mouse” value is 0.5% and the “Plasma stability (h) mouse” value is reported as over 48 h. Also, in series [3], the “% Release of degrader after 24 h rat” value was 0.5% and the “Plasma stability (h) rat” value is given as over 48 h. For the same molecule, in series [4], the “Plasma stability (h) dog” value is listed as over 48 h and the “% Release of degrader after 24 h dog” value stood at 0.3%. Besides, in series [5], the “Plasma stability (h) cyno” value was over 48 h and the “% Release of degrader after 24 h cyno” value turned out to be 0.2%. Further, at BTK C481S, the “Duration of BTK degradation in mouse ≥90% (days)” value was 7* days.

In the case of `CCCCCCCCCCCN(C(=O)CCCCCCCCCC(=O)O)C(CCC(=O)NCCOCCOCCOCCOCCOCCOCCOCCOCCOCCOCCOCCOCCC(=O)N[C@@H](C)CC(=O)OC(C)(C)c1ccc(C(=O)Nc2cc(F)cc(-c3ncnc4[nH]c(-c5ccc(CCN6CCC7(CC6)CCN(C(=O)c6ccc(OC)c(N8CCC(=O)NC8=O)c6)CC7)cc5)cc34)c2C)c(F)c1)C(=O)O` (stereo partly drawn) [Example A20, (6S)-51-Carboxy-2-(4-((3-(6-(4-(2-(9-(3-(2,4-dioxotetrahydropyrimidin-1(2H)-yl)-4-methoxybenzoyl)-3,9-diazaspiro[5.5]undecan-3-yl)ethyl)phenyl)-7H-pyrrolo[2,3-d]pyrimidin-4-yl)-5-fluoro-2-methylphenyl)carbamoyl)-3-fluorophenyl)-2,6-dimethyl-4,8,48,53-tetraoxo-52-undecyl-3,11,14,17,20,23,26,29,32,35,38,41,44-tridecaoxa-7,47,52-triazatrihexacontan-63-oic acid], in series [1], the “% Release of degrader after 24 h PBS” value came to 0.2% and the “Plasma stability (h) PBS” value was over 48 h. In series [2], the “% Release of degrader after 24 h mouse” value is 0.5% and the “Plasma stability (h) mouse” value is reported as over 48 h. Moreover, in series [3], the “% Release of degrader after 24 h rat” value is given as 0.3% and the “Plasma stability (h) rat” value is on record as over 48 h. In addition, in series [4], the “Plasma stability (h) dog” value is on record as over 48 h and the “% Release of degrader after 24 h dog” value is given as 0.4%. In addition, in series [5], the “Plasma stability (h) cyno” value is given as over 48 h and the “% Release of degrader after 24 h cyno” value was 0.2%. Moreover, the “Duration of BTK degradation in mouse ≥90% (days)” value at BTK C481S is 7* days.

For `CCCCCCCCCCCN(C(=O)CCCCCCCCCC(=O)O)C(CCC(=O)NCCOCCOCCOCCOCCOCCOCCOCCOCCOCCOCCOCCOCCC(=O)N1CCC(CC(=O)OC(C)(C)c2ccc(C(=O)Nc3cc(F)cc(-c4ncnc5[nH]c(-c6ccc(CCN7CCC8(CC7)CCN(C(=O)c7ccc(OC)c(N9CCC(=O)NC9=O)c7)CC8)cc6)cc45)c3C)c(F)c2)CC1)C(=O)O` (centres unmarked) [Example A21, 44-Carboxy-1-(4-(2-((2-(4-((3-(6-(4-(2-(9-(3-(2,4-dioxotetrahydropyrimidin-1(2H)-yl)-4-methoxybenzoyl)-3,9-diazaspiro[5.5]undecan-3-yl)ethyl)phenyl)-7H-pyrrolo[2,3-d]pyrimidin-4-yl)-5-fluoro-2-methylphenyl)carbamoyl)-3-fluorophenyl)propan-2-yl)oxy)-2-oxoethyl)piperidin-1-yl)-1,41,46-trioxo-45-undecyl-4,7,10,13,16,19,22,25,28,31,34,37-dodecaoxa-40,45-diazahexapentacontan-56-oic acid], in series [1], the “% Release of degrader after 24 h PBS” value was 0.2% and the “Plasma stability (h) PBS” value is over 48 h. Moreover, in series [2], the “% Release of degrader after 24 h mouse” value was 1.9% and the “Plasma stability (h) mouse” value is on record as over 48 h. In addition, in series [3], the “% Release of degrader after 24 h rat” value is 0.5% and the “Plasma stability (h) rat” value was over 48 h. Also, in series [4], the “Plasma stability (h) dog” value is on record as over 48 h and the “% Release of degrader after 24 h dog” value is given as 0.3%. Besides, in series [5], the “Plasma stability (h) cyno” value is over 48 h and the “% Release of degrader after 24 h cyno” value is on record as 0.4%. Besides, the “Duration of BTK degradation in mouse ≥90%” value at BTK C481S is on record as under 4 days.
